# Data taken from paper PMC3688593, “Cytokine Receptor-Like Factor 1 (CRLF1) Protects against 6-Hydroxydopamine Toxicity Independent of the gp130/JAK Signaling Pathway” (PLoS ONE, 2013).
# B1: cytokine receptor-like factor 1 (CRLF1), full-length, untagged (natural protein, UniProt O75462 38-422, looked up)
# chain: AHTAVISPQDPTLLIGSSLLATCSVHGDPPGATAEGLYWTLNGRRLPPELSRVLNASTLALALANLNGSRQRSGDNLVCHARDGSILAGSCLYVGLPPEKPVNISCWSKNMKDLTCRWTPGAHGETFLHTNYSLKYKLRWYGQDNTCEEYHTVGPHSCHIPKDLALFTPYEIWVEATNRLGSARSDVLTLDILDVVTTDPPPDVHVSRVGGLEDQLSVRWVSPPALKDFLFQAKYQIRYRVEDSVDWKVVDDVSNQTSCRLAGLKPGTVYFVQVRCNPFGIYGSKKAGIWSEWSHPTAASTPRSERPGPGGGACEPRGGEPSSGPVRRELKQFLGWLKKHAYCSNLSFRLYDQWRAWMQKSHKTRNQDEGILPSGRRGTARGPAR
# notes: signal peptide in the construct; cytokine receptor-like factor 1 (CRLF1), untagged full-length open reading frame in pCDH-EF1-MCS-IRES-neo; detected in the conditioned medium as the secreted protein; The 110 kDa band is lost on reduction, so the dimer appears to be disulfide-linked; also called CRLF1-FL; FL
# Molecular target: the molecule itself
# Assay: non-reducing versus reducing SDS-PAGE with immunoblot; proteins precipitated from conditioned media of stable SH-SY5Y lines; about 110 kDa band on non-reducing gels, 55 kDa CRLF1 band on reducing gels; blots for CRLF1 and CLCF1
protein,measurement,value
B1,stoichiometry N,2
